Source: patent US6451762B1 (Novo Nordisk A/S, priority 1997, dated 2002)

Key:
[1] = Disappearance after subcutaneous injection in pigs; conditions: pigs
Text: The gel filtration experiment using the conditions prescribed in this section is the direct physico-chemical method to reveal the potential aggregate formation property of an insulin derivative. Disappearance after subcutaneous injection in pigs reflects the combination of the albumin binding and polymer formation properties of the insulin derivative, besides a variety of biological factors.

[2] = Gel filtration method 2 on Superose 6HR (HPLC, 37° C.); type: physicochemical; conditions: 140 mM NaCl, 10 mM tris, pH 7.4
Protocol: An alternative method to measure the capability of insulin derivatives of forming soluble high molecular weight aggregates was developed, suitable for HPLC equipment. The column dimensions, injection volume, and flow rate correspond to the first method, whereas the temperature is increased to 37° C. and the phosphate buffer is changed to trishydroxymethylaminomethan hydrochloride and additional sodium chloride. The aggregated state of insulin is defined to elute before the gel filtration standard aldolase like in the first method.

[3] = Gel filtration on Sephacryl S-300 HR (aggregate formation, method 1); type: physicochemical; design: key to KAV: KAV=(VE-V0)/(VT-V0); fraction of available elution volume; conditions: Sephacryl S-300 HR, pH 7.4 eluent; Zinc free
Albumin = Albumin (Homo sapiens, UniProt P02768); test: Albumin binding constant; conditions: normalised using Lys^B29(N^ε tetradecanoyl) des(B30) human insulin as reference

Human insulin [reference compound]
Disappearance T50% ([1]; subcutaneous injection, normalised using Lys^B29(N^ε tetradecanoyl) des(B30) human insulin as reference): (2) h
Disappearance in pigs, T50% ([1]; subcutaneous, normalised to Lys^B29(N^ε tetradecanoyl-) des(B30) human insulin (T50% = 14.3 h)): 2 h
KAV (Superose 6HR) 2Zn^2+/6 ins ([2]; 2 Zn2+/6 ins): 0.64
KAV (Superose 6HR) 3Zn^2+/6 ins ([2]; 3 Zn2+/6 ins): 0.64
KAV [3]: 0.72
Albumin binding Kass (Albumin): 0 (mol/l)^−1
